From patent US6534281
Values belong to the substance of their own block, whether it stands above or below them.

Assays:
human C-peptide (human) [1] = test: sandwich immunoassay, two-step; 9103 on particles, labeled antibody 9101
human proinsulin (human) [2] = target: human proinsulin (human) (UniProt P01308); test: sandwich immunoassay, two-step, against C-peptide calibration; proinsulin 50 ng/ml; 9103 on particles, labeled antibody PEP-001
human C-peptide (human) [3] = test: sandwich immunoassay, one-step; 9103 on particles, labeled antibody 9101
human proinsulin (human) [4] = target: human proinsulin (human) (UniProt P01308); test: sandwich immunoassay, one-step, against C-peptide calibration; proinsulin 400 ng/ml; 9103 on particles, labeled antibody PEP-001
human proinsulin (human) [5] = target: human proinsulin (human) (UniProt P01308); test: sandwich immunoassay, two-step, against C-peptide calibration; proinsulin 200 ng/ml; 9103 on particles, labeled antibody 9101
human proinsulin (human) [6] = target: human proinsulin (human) (UniProt P01308); test: sandwich immunoassay, one-step, against C-peptide calibration; proinsulin 400 ng/ml; 9103 on particles, labeled antibody 9101
human C-peptide (human) [7] = test: sandwich immunoassay, two-step; 9103 on particles, labeled antibody PEP-001
human proinsulin (human) [8] = target: human proinsulin (human) (UniProt P01308); test: sandwich immunoassay, two-step, against C-peptide calibration; proinsulin 400 ng/ml; 9103 on particles, labeled antibody 9101
human proinsulin (human) [9] = target: human proinsulin (human) (UniProt P01308); test: sandwich immunoassay, one-step, against C-peptide calibration; proinsulin 200 ng/ml; 9103 on particles, labeled antibody 9101
[10] = target: modified C-peptide (human C-peptide having Arg-Arg bound to its N-terminal and Lys-Arg bound to its C-terminal) (human); test: sandwich immunoassay, one-step, against C-peptide calibration; modified C-peptide 5 ng/ml; 9103 on particles, labeled antibody PEP-001
human proinsulin (human) [11] = target: human proinsulin (human) (UniProt P01308); test: sandwich immunoassay, one-step, against C-peptide calibration; proinsulin 50 ng/ml; 9103 on particles, labeled antibody 9101
[12] = target: modified C-peptide (human C-peptide having Arg-Arg bound to its N-terminal and Lys-Arg bound to its C-terminal) (human); test: sandwich immunoassay, one-step, against C-peptide calibration; modified C-peptide 5 ng/ml; 9103 on particles, labeled antibody 9101
human proinsulin (human) [13] = target: human proinsulin (human) (UniProt P01308); test: sandwich immunoassay, one-step, against C-peptide calibration; proinsulin 200 ng/ml; 9103 on particles, labeled antibody PEP-001
[14] = target: modified C-peptide (human C-peptide having Arg-Arg bound to its N-terminal and Lys-Arg bound to its C-terminal) (human); test: sandwich immunoassay, two-step, against C-peptide calibration; modified C-peptide 5 ng/ml; 9103 on particles, labeled antibody PEP-001
human proinsulin (human) [15] = target: human proinsulin (human) (UniProt P01308); test: sandwich immunoassay, two-step, against C-peptide calibration; proinsulin 400 ng/ml; 9103 on particles, labeled antibody PEP-001
human C-peptide (human) [16] = test: sandwich immunoassay, one-step; 9103 on particles, labeled antibody PEP-001
human proinsulin (human) [17] = target: human proinsulin (human) (UniProt P01308); test: sandwich immunoassay, two-step, against C-peptide calibration; proinsulin 200 ng/ml; 9103 on particles, labeled antibody PEP-001
human proinsulin (human) [18] = target: human proinsulin (human) (UniProt P01308); test: sandwich immunoassay, two-step, against C-peptide calibration; proinsulin 50 ng/ml; 9103 on particles, labeled antibody 9101
[19] = target: modified C-peptide (human C-peptide having Arg-Arg bound to its N-terminal and Lys-Arg bound to its C-terminal) (human); test: sandwich immunoassay, two-step, against C-peptide calibration; modified C-peptide 5 ng/ml; 9103 on particles, labeled antibody 9101
human proinsulin (human) [20] = target: human proinsulin (human) (UniProt P01308); test: sandwich immunoassay, one-step, against C-peptide calibration; proinsulin 50 ng/ml; 9103 on particles, labeled antibody PEP-001
human proinsulin (human) [21] = target: human proinsulin (human) (UniProt P01308); test: sandwich immunoassay, one-step, against C-peptide calibration; proinsulin 400 ng/ml; PEP-001 on particles, labeled antibody CPT-3-F11
[22] = target: modified C-peptide (human C-peptide having Arg-Arg bound to its N-terminal and Lys-Arg bound to its C-terminal) (human); test: sandwich immunoassay, one-step, against C-peptide calibration; modified C-peptide 5 ng/ml; PEP-001 on particles, labeled antibody 9103
human C-peptide (human) [23] = test: sandwich immunoassay, two-step; PEP-001 on particles, labeled antibody CPT-3F-11
[24] = target: modified C-peptide (human C-peptide having Arg-Arg bound to its N-terminal and Lys-Arg bound to its C-terminal) (human); test: sandwich immunoassay, two-step, against C-peptide calibration; modified C-peptide 5 ng/ml; PEP-001 on particles, labeled antibody 9103
human proinsulin (human) [25] = target: human proinsulin (human) (UniProt P01308); test: sandwich immunoassay, two-step, against C-peptide calibration; proinsulin 400 ng/ml; PEP-001 on particles, labeled antibody CPT-3-F11
human proinsulin (human) [26] = target: human proinsulin (human) (UniProt P01308); test: sandwich immunoassay, one-step, against C-peptide calibration; proinsulin 50 ng/ml; PEP-001 on particles, labeled antibody 9103
human C-peptide (human) [27] = test: sandwich immunoassay, one-step; PEP-001 on particles, labeled antibody CPT-3F-11
human C-peptide (human) [28] = test: sandwich immunoassay, one-step; PEP-001 on particles, labeled antibody 9103
human proinsulin (human) [29] = target: human proinsulin (human) (UniProt P01308); test: sandwich immunoassay, two-step, against C-peptide calibration; proinsulin 400 ng/ml; PEP-001 on particles, labeled antibody 9103
human C-peptide (human) [30] = test: sandwich immunoassay, two-step; PEP-001 on particles, labeled antibody 9103
human proinsulin (human) [31] = target: human proinsulin (human) (UniProt P01308); test: sandwich immunoassay, two-step, against C-peptide calibration; proinsulin 200 ng/ml; PEP-001 on particles, labeled antibody CPT-3-F11
human proinsulin (human) [32] = target: human proinsulin (human) (UniProt P01308); test: sandwich immunoassay, one-step, against C-peptide calibration; proinsulin 50 ng/ml; PEP-001 on particles, labeled antibody CPT-3-F11
[33] = target: modified C-peptide (human C-peptide having Arg-Arg bound to its N-terminal and Lys-Arg bound to its C-terminal) (human); test: sandwich immunoassay, two-step, against C-peptide calibration; modified C-peptide 5 ng/ml; PEP-001 on particles, labeled antibody CPT-3F-11
human proinsulin (human) [34] = target: human proinsulin (human) (UniProt P01308); test: sandwich immunoassay, one-step, against C-peptide calibration; proinsulin 400 ng/ml; PEP-001 on particles, labeled antibody 9103
human proinsulin (human) [35] = target: human proinsulin (human) (UniProt P01308); test: sandwich immunoassay, two-step, against C-peptide calibration; proinsulin 200 ng/ml; PEP-001 on particles, labeled antibody 9103
human proinsulin (human) [36] = target: human proinsulin (human) (UniProt P01308); test: sandwich immunoassay, two-step, against C-peptide calibration; proinsulin 50 ng/ml; PEP-001 on particles, labeled antibody CPT-3-F11
human proinsulin (human) [37] = target: human proinsulin (human) (UniProt P01308); test: sandwich immunoassay, one-step, against C-peptide calibration; proinsulin 200 ng/ml; PEP-001 on particles, labeled antibody 9103
human proinsulin (human) [38] = target: human proinsulin (human) (UniProt P01308); test: sandwich immunoassay, two-step, against C-peptide calibration; proinsulin 50 ng/ml; PEP-001 on particles, labeled antibody 9103
[39] = target: modified C-peptide (human C-peptide having Arg-Arg bound to its N-terminal and Lys-Arg bound to its C-terminal) (human); test: sandwich immunoassay, one-step, against C-peptide calibration; modified C-peptide 5 ng/ml; PEP-001 on particles, labeled antibody CPT-3F-11
human proinsulin (human) [40] = target: human proinsulin (human) (UniProt P01308); test: sandwich immunoassay, one-step, against C-peptide calibration; proinsulin 200 ng/ml; PEP-001 on particles, labeled antibody CPT-3-F11

Chain of UniProt P01308 (P01308 25-110): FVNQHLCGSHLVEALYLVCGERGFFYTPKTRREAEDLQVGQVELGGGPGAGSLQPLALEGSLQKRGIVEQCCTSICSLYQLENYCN
Chain of human C-peptide (human) (peptide, as listed by the source): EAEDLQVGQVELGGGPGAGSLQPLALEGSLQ
Chain of modified C-peptide (human C-peptide having Arg-Arg bound to its N-terminal and Lys-Arg bound to its C-terminal) (human) (peptide, as listed by the source): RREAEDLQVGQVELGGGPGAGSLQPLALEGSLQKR

2S/N value (human C-peptide (human) [1]): 0.167 ng/mL
Cross-reactivity (%) to Human Proinsulin (human proinsulin (human) [2]): 65.2%
2S/N value (human C-peptide (human) [3]): 0.117 ng/mL
Cross-reactivity (%) to Human Proinsulin (human proinsulin (human) [4]): > 15%
Cross-reactivity (%) to Human Proinsulin (human proinsulin (human) [5]): 4.4%
Cross-reactivity (%) to Human Proinsulin (human proinsulin (human) [6]): 6.9%
2S/N value (human C-peptide (human) [7]): 0.018 ng/mL
Cross-reactivity (%) to Human Proinsulin (human proinsulin (human) [8]): 6.8%
Cross-reactivity (%) to Human Proinsulin (human proinsulin (human) [9]): 5.8%
Cross-reactivity (%) to Modified C-peptide [10]: 58.2%
Cross-reactivity (%) to Human Proinsulin (human proinsulin (human) [11]): 3.2%
Cross-reactivity (%) to Modified C-peptide [12]: < 0.5%
Cross-reactivity (%) to Human Proinsulin (human proinsulin (human) [13]): > 30%
Cross-reactivity (%) to Modified C-peptide [14]: 38.6%
Cross-reactivity (%) to Human Proinsulin (human proinsulin (human) [15]): > 15%
2S/N value (human C-peptide (human) [16]): 0.009 ng/mL
Cross-reactivity (%) to Human Proinsulin (human proinsulin (human) [17]): > 30%
Cross-reactivity (%) to Human Proinsulin (human proinsulin (human) [18]): 2.3%
Cross-reactivity (%) to Modified C-peptide [19]: < 0.5%
Cross-reactivity (%) to Human Proinsulin (human proinsulin (human) [20]): 58%
Substance: anti-human C-peptide monoclonal antibody 9103 (Medix Biochemica)

Cross-reactivity (%) to Human Proinsulin (human proinsulin (human) [21]): > 15%
Cross-reactivity (%) to Modified C-peptide [22]: 35%
2S/N value (human C-peptide (human) [23]): 0.271 ng/mL
Cross-reactivity (%) to Modified C-peptide [24]: 38.3%
Cross-reactivity (%) to Human Proinsulin (human proinsulin (human) [25]): > 15%
Cross-reactivity (%) to Human Proinsulin (human proinsulin (human) [26]): > 120%
2S/N value (human C-peptide (human) [27]): 0.191 ng/mL
2S/N value (human C-peptide (human) [28]): 0.781 ng/mL
Cross-reactivity (%) to Human Proinsulin (human proinsulin (human) [29]): > 15%
2S/N value (human C-peptide (human) [30]): 0.591 ng/mL
Cross-reactivity (%) to Human Proinsulin (human proinsulin (human) [31]): > 30%
Cross-reactivity (%) to Human Proinsulin (human proinsulin (human) [32]): > 120%
Cross-reactivity (%) to Modified C-peptide [33]: 80%
Cross-reactivity (%) to Human Proinsulin (human proinsulin (human) [34]): > 15%
Cross-reactivity (%) to Human Proinsulin (human proinsulin (human) [35]): > 30%
Cross-reactivity (%) to Human Proinsulin (human proinsulin (human) [36]): > 120%
Cross-reactivity (%) to Human Proinsulin (human proinsulin (human) [37]): > 30%
Cross-reactivity (%) to Human Proinsulin (human proinsulin (human) [38]): > 120%
Cross-reactivity (%) to Modified C-peptide [39]: 98.5%
Cross-reactivity (%) to Human Proinsulin (human proinsulin (human) [40]): > 30%
Substance: anti-human C-peptide monoclonal antibody PEP-001 (Dako)
